# According to US20250282868A1 (ITEOS BELGIUM, published 2025):
# Residue numbers refer to the chain shown, from its start.
# T1: human TREM2 (human, UniProt Q9NZC2 19-230)
# T1 sequence: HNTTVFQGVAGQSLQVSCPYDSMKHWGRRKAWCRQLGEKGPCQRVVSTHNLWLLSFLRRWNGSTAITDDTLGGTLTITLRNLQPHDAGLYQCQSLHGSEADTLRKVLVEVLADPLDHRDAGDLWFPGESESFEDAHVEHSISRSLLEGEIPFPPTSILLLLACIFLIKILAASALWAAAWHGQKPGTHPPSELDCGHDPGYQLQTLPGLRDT
# T2: cynomolgus TREM2 (cynomolgus, UniProt A0A2K5UY34 49-260)
# T2 construct: also called cynoTREM2; cTREM2
# T2 sequence: T1 sequence with A10E, W60R, L89F, F125V, I157V, L193P, Y201H
# T3: mouse TREM2 (mouse, UniProt Q99NH8 19-227)
# T3 construct: whole, on cells
# T3 sequence (looked up): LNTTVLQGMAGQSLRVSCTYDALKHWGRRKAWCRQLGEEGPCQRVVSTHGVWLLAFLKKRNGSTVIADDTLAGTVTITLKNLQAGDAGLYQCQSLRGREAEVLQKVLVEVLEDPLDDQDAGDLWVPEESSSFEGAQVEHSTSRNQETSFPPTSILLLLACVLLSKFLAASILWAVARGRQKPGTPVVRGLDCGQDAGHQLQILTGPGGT
# B1: EOS006166 (antibody, V domains shown)
# VH: EVQLVESGGGLVQPGRSLRLSCTASGFTFGDYAMSWFRQAPGKGLEWVGFIGSKAYGGTTEYTASVKGRFTISRDGSKSIAYLQMNSLKTEDTAVYYCARGKRYSYGYWHPAFDVWGQGTMVTVSS
# VL: DIQMTQSPSSLSASVGDRVTITCQASQDITNYLNWYQQKPGKAPKLLIYDASNLETGVPSRFSGSGSGTDFTFTISSLQPEDIATYYCQQYDSYLTFGGGTKVEIK
# B2: EOS006181 (antibody, V domains shown)
# VH: B1 VH with G30D, Y32H, G107T, H110T
# VL: B1 VL
# B3: EOS006176 (antibody, V domains shown)
# VH: EVQLLESGGGLVQPGGSLRLSCAASGFTFSTHAMTWVRQAPGKGLEWVSAISANAGKTYYADSVKGRFTISRDNSKNTLYLQMNSLRAEDTAVYYCASLRGGYEVGPTFDSWGQGTLVTVSS
# VL: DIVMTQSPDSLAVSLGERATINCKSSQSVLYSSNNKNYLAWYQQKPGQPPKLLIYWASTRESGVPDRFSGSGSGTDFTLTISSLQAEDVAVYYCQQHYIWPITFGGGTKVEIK
# B4: EOS006178 (antibody, V domains shown)
# VH: B3 VH with T31N, H32Y, A33G, T35G, S111P
# VL: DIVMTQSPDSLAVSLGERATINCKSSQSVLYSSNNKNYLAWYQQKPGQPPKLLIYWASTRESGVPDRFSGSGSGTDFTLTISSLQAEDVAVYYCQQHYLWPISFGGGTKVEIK
# B5: 14D3 (antibody, V domains shown)
# VH: EVKLLEFGGGLVQPGGSMRLSCAASGFTFTDFYMNWIRQPAGRAPEWLGLIRNKTKGYTTEYNRSVKGRFTISRDNTQNMLYLQMNSLRPEDTATYYCARIGVNNGGSLDYWGQGVMVTVSS
# VL: DILIIQSPASLTVSAGARVTMSCKSSQSLLYSENNQDYLAWYQQKPGQFPKLLIYGASNRHTGVPDRFTGSGSGTDFTLTISSVQAEDLADYYCEQTYSYPYTFGAGTKLELK
# B6: EOS006163 (antibody, V domains shown)
# VH: QVQLVQSGAEVKKPGSSVKVSCKASGGTFAQYAISWVRQAPGQGLEWMGVIIPDSGTANYAQKFQGRVTITADESTSTAYMELSSLRSEDTAVYYCARTQENTIFDIWGQGTMVTVSS
# VL: EIVLTQSPATLSLSPGERATLSCRASQSVSSYLAWFQQKPGQAPRLLIYDASNRATGIPARFSGSGSGTDFTLTISSLEPEDFAVYYCQQDYEWPITFGGGTKVEIK
# B7: EOS006171 (antibody, V domains shown)
# VH: QVQLVESGGGLVKPGGSLRLSCAASGFTFSDYYMSWIRQAPGKGLEWVSYISSSGSTIYYADSVKGRFTISRDNAKNSLYLQMNSLRAEDTAVYYCARLGGYYSLGPMDVWGQGTTVTVSS
# VL: B6 VL with F36Y, Y92S, E93A, W94F, I96F
# B8: 6E7 (antibody, V domains shown)
# VH: EVQLVQSGAEVKKPGESLKISCKGSGYSFTSYWIAWVRQMPGKGLEWMGIIYPGDSDTRYSPSFQGQVTISADKSISTAYLQWSSLKASDTAMYFCARQRTFYYDSSDYFDYWGQGTLVTVSS
# VL: DIQMTQSPSSVSASVGDRVTITCRASQGISSWLAWYQQKPGKAPKLLIYAASSLQNGVPSRFSGSGSGTDFTLTISSLQPEDFATYFCQQADSFPRTFGQGTKLEIK
# B9: Ab52 (antibody, V domains shown)
# VH: QVQLVQSGAEVKKPGASVKVSCKASGYTFTSYYIHWVRQAPGQGLEWMGIINPSGGSTSYAQKFQGRVTMTRDTSTSTVYMELSSLRSEDTAVYYCAREADDSSGYPLGLDVWGQGTMVTVSS
# VL: EIVMTQSPATLSVSPGERATLSCRASQSVSSNLAWYQQKPGQAPRLLIYGASTRATGIPARFSGSGSGTEFTLTISSLQSEDFAVYYCQQVNSLPPTFGGGTKVEIK
# notes: benchmark anti-TREM2 antibody from WO2016023019A2
# B10: PN-37012 (antibody, V domains shown)
# VH: EVQLLESGGGLVQPGGSLRLSCAASGFTFSNYYMAWVRQAPGKGLEWVSSLTNSGGSTYYADSVKGRFTISRDNSKNTLYLQMNSLRAEDTAVYYCTREWAGSGYFDYWGQGTLVTVSS
# VL: DIQMTQSPSSLSASVGDRVTITCKASQNVGNNLAWYQQKPGKAPKLLIYYTSNRFTGVPSRFSGSGSGTDFTLTISSLQPEDFATYYCQRIYNSPWTFGQGTKLEIK
# notes: benchmark anti-TREM2 antibody from US20190309064
# Molecular target: T1, human TREM2
# Experiment: cell-based or functional assay
row,Stabilization ratio (Mean of 2 replicates) [ratio],Binder
1,0.49,B1
2,0.69,B2
3,0.6,B3
4,0.64,B4
5,0.96,B5
6,0.42,B6
7,0.46,B7

# Molecular target: T1, human TREM2
# Experiment: cell-based or functional assay
# Remark: another data set of the same source
Fold over isotype control at 66 nM [fold],pSYK/TotSYK EC50 (nM),Binder
1.75,–,B1
2.84,1.09,B2
2.65,4.05,B3
2.51,3.89,B4
1.93,1.29,B8
0.701,–,B6
2.4,9.7,B7

# Molecular target: T1, human TREM2
# Experiment: flow cytometry, M2a-like macrophages
# Description: (§1) M2a-like macrophages were produced in vitro from monocytes of healthy donors. Briefly, after PBMCs isolation from peripheral blood using Lymphoprep™ gradient, CD14+ cells were purified and seeded in presence of MCSF 50 ng/ml for 6 days. Macrophages were then cultured with IL-13 and IL-4 at a concentration of 20 ng/ml for two additional days and then used for a cell-based binding assay.
# (§2) M2a-like macrophages were incubated with anti-TREM2 antibodies (dose-response curve with 11 concentrations from 10 μg/ml to 0.0001 μg/ml) for 30 min at 4° C. After washing, bound antibodies were detected with a secondary anti-human IgG Fc PE-labelled for 30 min at 4° C. Fluorescence intensity was measured by flow cytometry. Equilibrium dissociation constant (kD) was then calculated for each antibody using median MFI normalized over isotype control.
row,Fold over isotype [fold],Binder
1,5.9,B1
2,9.3,B2
3,13.1,B3
4,5.4,B4
5,13,B6

# Molecular target: T1, human TREM2
# Experiment: flow cytometry, THP-1 WT cells, 10 ug/ml
# Description: (§3) In order to test specificity of selected antibodies to TREM2, binding was tested by flow cytometry on THP-1 TREM2 KO (clone, produced using CRISPR technology in house) and on THP-1 WT. Cells were incubated with selected anti-TREM2 antibodies (final concentration of 10 μg/ml) for 30 min at 4° C. After washing, bound antibodies were detected with a secondary anti-human IgG Fc PE-labelled for 30 min at 4° C. Fluorescence intensity was measured by flow cytometry.
row,Fold over isotype control THP1 WT [fold],Binder
1,7.3,B1
2,3.5,B2
3,2.7,B3
4,2.1,B4
5,2.7,B6
6,6.6,B7

# Molecular target: T2, cynomolgus TREM2
# Experiment: MFI on CHO cells over-expressing cynoTREM2-DAP12
# Description: (§4) Cross-reactivity of anti-TREM2 antibodies to cynomolgus TREM2 (cynoTREM2) was assessed using CHO over-expressing cynoTREM2-DAP12 (Table 22). Benchmark antibodies, AB52 and PN-37012, were examined for comparison.
row,Binding to CHO-cTREM2 MFI [MFI],Binder
1,25500,B9
2,25500,B1
3,11900,B2
4,20400,B3
5,19700,B4
6,17700,B6
7,13400,B7

# Molecular target: T1, human TREM2
# Experiment: flow cytometry, M2a-like macrophages, dose-response
# Description: as §1, §2
row,Kd [nM],Binder
1,1.21,B1
2,0.15,B6
3,2.8,B7

# Molecular target: T3, mouse TREM2
# Experiment: MFI on CT26 cells over-expressing mouse TREM2 and DAP12
# Description: (§5) Cross-reactivity to mouse TREM2 was assessed using CT26 cells over-expressing mouse TREM2 and DAP12 (Table 23). Eight anti-TREM2 antibodies and both benchmark antibodies were considered cross-reactive to mouse TREM2 (MFI higher than isotype control and fold change of CT26-TREM2 over the CT26 Empty Vector higher than 5). The remaining anti-TREM2 antibodies were considered as being low to not cross-reactive (fold change less than 5). EOS006171 was not tested due to clear non-cross-reactivity preliminary data by octet (data not shown).
row,Binding to CT26-TREM2 MFI [MFI],Binder
1,8810,B9
2,6750,B10
3,4690,B2
4,6340,B3
5,6790,B4

# Molecular target: T1, human TREM2
# Experiment: flow cytometry, THP-1 WT vs THP-1 TREM2 KO cells, 10 ug/ml
# Description: as §3
row,MFI Fold change (THP-1 WT over THP-1 TREM2 KO) [fold],Binder
1,1.8,B1
2,4.8,B2
3,3.4,B3
4,2.4,B4
5,5.1,B6
6,4.3,B7

# Molecular target: T2, cynomolgus TREM2
# Experiment: MFI on CHO cells over-expressing cynoTREM2-DAP12 vs CHO empty vector
# Description: as §4
row,MFI Fold change (CHO-cTREM2 over CHO-EV) [fold],Binder
1,602,B9
2,602,B1
3,251,B2
4,388,B3
5,334,B4
6,395,B6
7,495,B7

# Molecular target: T3, mouse TREM2
# Experiment: MFI on CT26 cells over-expressing mouse TREM2 and DAP12 vs CT26 empty vector
# Description: as §5
row,MFI Fold change (CT26-TREM2 over CT26-EV) [fold],Binder
1,33.6,B9
2,21,B10
3,17.4,B2
4,15,B3
5,15.8,B4

# Molecular target: T1, human TREM2
# Experiment: flow cytometry, competition with LDL-Alexafluor-488 on CHO cells overexpressing human TREM2/DAP12
# Description: Exemplary anti-TREM2 antibodies were tested in order to characterize their ability to enter in competition with TREM2 ligand, LDL, on CHO overexpressing human TREM2/DAP12. Antibodies (dose response curves from 66.65 nM to 0.07 nM) were incubated for 30 min with cells in a soluble fashion, followed by an incubation with LDL coupled with Alexafluor-488 (at 1 μg/mL final) for 30 min. Finally, after 2 washes, cells were acquired on flow cytometer. The median MFI of Alexafluor-488 was used to plot the graphs. Benchmark antibody MOR044746 was used as positive control.
row,IC50 [nM],Binder
1,0.865,B1
2,0.28,B2
3,0.169,B6
